# Source: patent US20230141962A1 (published 2023)
# T1: HCoV-HKU1 Spike/S1 Protein (HCoV-HKU1, UniProt Q0ZME7 13-756)
# T1 construct: domain: Spike/S1; also called HKU1-HIS
# T1 sequence: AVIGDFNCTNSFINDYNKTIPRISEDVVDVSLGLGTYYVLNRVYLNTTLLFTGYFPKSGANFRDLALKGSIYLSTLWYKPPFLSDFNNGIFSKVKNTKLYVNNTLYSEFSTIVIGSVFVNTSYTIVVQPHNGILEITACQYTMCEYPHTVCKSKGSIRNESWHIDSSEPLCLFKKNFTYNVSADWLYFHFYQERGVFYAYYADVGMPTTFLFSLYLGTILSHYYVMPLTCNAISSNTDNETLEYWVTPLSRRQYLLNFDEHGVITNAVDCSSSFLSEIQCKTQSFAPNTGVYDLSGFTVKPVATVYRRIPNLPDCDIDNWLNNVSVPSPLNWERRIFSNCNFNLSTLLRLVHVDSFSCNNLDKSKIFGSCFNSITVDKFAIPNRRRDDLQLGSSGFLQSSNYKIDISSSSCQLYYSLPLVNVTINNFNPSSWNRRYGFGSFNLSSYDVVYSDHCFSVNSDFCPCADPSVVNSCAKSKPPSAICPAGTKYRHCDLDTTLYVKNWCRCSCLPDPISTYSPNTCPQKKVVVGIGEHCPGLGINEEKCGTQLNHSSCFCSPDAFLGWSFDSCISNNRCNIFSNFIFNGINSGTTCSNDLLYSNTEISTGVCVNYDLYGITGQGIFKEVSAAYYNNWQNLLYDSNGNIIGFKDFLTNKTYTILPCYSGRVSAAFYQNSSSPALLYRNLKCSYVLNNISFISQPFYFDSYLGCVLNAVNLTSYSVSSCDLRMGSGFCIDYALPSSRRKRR
# T2: HCoV-NL63 Spike/S1 Protein (HCoV-NL63, UniProt Q6Q1S2 19-717)
# T2 construct: domain: Spike/S1; also called NL63-HIS
# T2 sequence: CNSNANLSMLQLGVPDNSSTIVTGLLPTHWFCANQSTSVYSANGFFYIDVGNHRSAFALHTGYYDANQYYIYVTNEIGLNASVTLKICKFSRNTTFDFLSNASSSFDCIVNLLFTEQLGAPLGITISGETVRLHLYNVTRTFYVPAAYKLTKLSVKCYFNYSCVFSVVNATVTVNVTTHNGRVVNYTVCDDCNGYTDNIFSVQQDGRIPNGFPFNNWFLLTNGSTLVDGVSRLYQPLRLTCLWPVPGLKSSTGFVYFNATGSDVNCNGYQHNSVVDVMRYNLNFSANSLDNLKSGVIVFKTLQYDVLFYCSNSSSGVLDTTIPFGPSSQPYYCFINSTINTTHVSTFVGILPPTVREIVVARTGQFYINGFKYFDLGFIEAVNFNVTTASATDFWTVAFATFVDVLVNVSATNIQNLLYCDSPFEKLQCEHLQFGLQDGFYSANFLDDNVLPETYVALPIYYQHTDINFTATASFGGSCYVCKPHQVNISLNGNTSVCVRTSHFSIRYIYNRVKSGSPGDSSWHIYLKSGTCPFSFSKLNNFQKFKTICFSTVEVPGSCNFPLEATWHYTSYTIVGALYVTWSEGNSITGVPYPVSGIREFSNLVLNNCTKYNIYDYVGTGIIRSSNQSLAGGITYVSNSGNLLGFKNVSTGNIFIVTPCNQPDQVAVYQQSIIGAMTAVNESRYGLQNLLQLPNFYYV
# T3: HCoV-229E Spike/S1 Protein (HCoV-229E, UniProt P15423 16-536)
# T3 construct: domain: Spike/S1; also called 229E-HIS
# T3 sequence: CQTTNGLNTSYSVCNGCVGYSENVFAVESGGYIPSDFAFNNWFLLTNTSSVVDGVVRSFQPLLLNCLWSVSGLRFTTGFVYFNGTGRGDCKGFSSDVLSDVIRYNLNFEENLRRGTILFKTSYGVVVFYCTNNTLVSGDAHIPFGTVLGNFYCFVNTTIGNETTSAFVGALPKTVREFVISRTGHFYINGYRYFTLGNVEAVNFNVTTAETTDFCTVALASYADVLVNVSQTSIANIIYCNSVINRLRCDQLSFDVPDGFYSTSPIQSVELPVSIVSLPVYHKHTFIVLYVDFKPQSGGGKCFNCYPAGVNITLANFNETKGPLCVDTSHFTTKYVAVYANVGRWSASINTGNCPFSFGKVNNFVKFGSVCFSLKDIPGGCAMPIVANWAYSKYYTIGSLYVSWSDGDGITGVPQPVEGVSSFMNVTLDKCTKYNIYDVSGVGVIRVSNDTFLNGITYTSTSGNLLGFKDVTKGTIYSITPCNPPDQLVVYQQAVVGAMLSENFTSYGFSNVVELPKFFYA
# T4: HCoV-OC43 Spike Protein (HCoV-OC43, UniProt P36334 14-1297)
# T4 construct: also called OC43-HIS
# T4 sequence: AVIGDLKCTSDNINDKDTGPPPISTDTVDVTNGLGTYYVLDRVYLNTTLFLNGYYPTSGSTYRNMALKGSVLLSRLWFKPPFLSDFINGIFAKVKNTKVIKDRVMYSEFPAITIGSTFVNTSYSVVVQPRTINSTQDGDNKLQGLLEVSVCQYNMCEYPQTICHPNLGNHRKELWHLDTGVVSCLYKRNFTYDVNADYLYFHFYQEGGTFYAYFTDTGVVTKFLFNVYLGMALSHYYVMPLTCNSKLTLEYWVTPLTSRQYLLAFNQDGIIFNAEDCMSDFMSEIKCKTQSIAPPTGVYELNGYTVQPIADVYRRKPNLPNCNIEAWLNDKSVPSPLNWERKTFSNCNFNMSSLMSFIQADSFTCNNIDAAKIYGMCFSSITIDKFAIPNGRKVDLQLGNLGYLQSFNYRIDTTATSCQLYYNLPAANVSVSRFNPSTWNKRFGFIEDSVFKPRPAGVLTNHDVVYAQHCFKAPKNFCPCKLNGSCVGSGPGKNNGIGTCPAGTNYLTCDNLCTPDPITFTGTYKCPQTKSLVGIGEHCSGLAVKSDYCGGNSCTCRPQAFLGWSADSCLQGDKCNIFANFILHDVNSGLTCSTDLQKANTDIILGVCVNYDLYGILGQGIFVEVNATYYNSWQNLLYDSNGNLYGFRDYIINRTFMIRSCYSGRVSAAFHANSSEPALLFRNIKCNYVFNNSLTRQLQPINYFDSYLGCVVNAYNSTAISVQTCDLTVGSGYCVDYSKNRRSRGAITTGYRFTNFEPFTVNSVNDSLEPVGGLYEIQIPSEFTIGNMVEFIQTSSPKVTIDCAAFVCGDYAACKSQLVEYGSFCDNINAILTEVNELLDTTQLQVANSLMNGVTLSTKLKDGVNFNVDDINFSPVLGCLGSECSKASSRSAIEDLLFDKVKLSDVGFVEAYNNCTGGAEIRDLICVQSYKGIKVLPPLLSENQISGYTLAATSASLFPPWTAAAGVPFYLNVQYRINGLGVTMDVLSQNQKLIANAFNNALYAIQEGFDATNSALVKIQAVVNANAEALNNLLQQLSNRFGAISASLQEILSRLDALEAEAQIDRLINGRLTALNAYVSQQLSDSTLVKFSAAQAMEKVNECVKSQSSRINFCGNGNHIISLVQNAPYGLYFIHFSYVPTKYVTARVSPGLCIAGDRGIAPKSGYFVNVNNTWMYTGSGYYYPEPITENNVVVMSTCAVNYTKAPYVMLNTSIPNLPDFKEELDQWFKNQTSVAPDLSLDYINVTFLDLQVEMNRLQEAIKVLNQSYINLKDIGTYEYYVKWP
# B1: phage clone #20 (scFv)
# scFv: SYVLTQPPSASGTPGQRVTISCSGSSSNIGSNTVNWYQQLPGTAPKLLIYSNNQRPSGVPDRFSASKSGTSASLAISGFQSEDEADYYCAAWDDSLDGYVFGTGTKVTVLGSRGGGGSGGGGSGGGGSLEMAEVQLVQSGAEVKKPGESLKISCKGSGYSFPSYWIGWVRQMPGKGLEWMGIIYPGDSDTRYSPSFQGQVTISADKSISTAYLQWSSLKASDTAMYYCARGSYTYMGGSYDYWGQGTLVTVSSTSGQAGQ
# B2: phage clone #19 (scFv)
# scFv: QSALTQPASVSGSPGQSITISCTGTSSDVGGYNYVSWYQQHPGKVPKLMIYEVSNRPSGVSNRFSGSKSGNTASLTISGLQAEDEADYYCSSYTSGDTLVFGGGTKVTVLGSRGGGGSGGGGSGGGGSLEMAELQLVESGGGVVQPGRSPRLSCAASGFTFSNYPMHWVRQAPGKGLEWVAVISYDGNHKYYADSLEGRFSISRDNSKNTLYLQMNSLTAADTAVYYCARGGGMGGLDSWGQGTLVTVSSTSGQAGQ
# B3: phage clone #13 (scFv)
# scFv: QSVLTQPPSASGTPGQRVTISCSGSSSNIGSNYVYWYQQLPGTAPKLLIYRNNQRPSGVPDRFSGSKSGTSASLAISGLRSEDEADYYCAAWDDSLSGPNYVFGTGTKVTVLGSRGGGGSGGGGSGGGGSLEMAQVQLVQSGAEVKKPGSSVKVSCKASGGTFSSYAISWVRQAPGQGLEWMGWISGYNGNTNYAQKLQGRVTMTTDTSTSTAYMELRSLRSDDTAVYYCARTGWSKGEKVTTWGEWFYVDYWGQGTLVTVSSTSGQAGQ
# B4: phage clone #30 (scFv)
# scFv: QSALTQPPSASGSPGQSVTISCTGTSSDVGGYDYVSWYQQHPGKAPKLMIYEVSKRPSGVSNRFSGSKSGNTASLTISGLQAEDEADYYCSSYTSSSTFPYVFGTGTKVTVLGSRGGGGSGGGGSGGGGSLEMAEVQLVESGGGLEQPGGSLRLSCAASGFTFSSYAMSWVRQAPGKGLEWVSAISASGNSTFYADSVKGRFTISRDNSKHTLDLQMNSLRADDTAVYYCARNSDVWGQGTLVTVSSTSGQAGQ
# Target: T1, HCoV-HKU1 Spike/S1 Protein
# Assay: phage ELISA
row,Binder,binding result
1,B1,no binding
2,B2,no binding
3,B3,no binding
4,B4,no binding

# Target: T2, HCoV-NL63 Spike/S1 Protein
# Assay: phage ELISA
row,Binder,binding result
1,B1,no binding
2,B2,no binding
3,B3,no binding
4,B4,no binding

# Target: T3, HCoV-229E Spike/S1 Protein
# Assay: phage ELISA
row,Binder,binding result
1,B1,no binding
2,B2,no binding
3,B3,no binding
4,B4,no binding

# Target: T4, HCoV-OC43 Spike Protein
# Assay: phage ELISA
row,Binder,binding result
1,B1,no binding
2,B2,no binding
3,B3,no binding
4,B4,no binding
